Reference: article PMC3985186, “The influence of dynein processivity control, MAPs, and microtubule ends on directional movement of a localising mRNA” (eLife, 2014)

Tests used:
[1] = molecular target: the molecule itself; experiment: SEC; gel filtration of purified kin401T99N:mGFP before concentration
[2] = molecular target: the molecule itself; experiment: stepwise photobleaching (TIR microscopy); dilute solution (1 pM) of kin401T99N:mGFP added to imaging chambers with HiLyte 647-labelled microtubules bound to the glass, no ATP, oxygen scavenging agent

B1: GFP-labelled Drosophila kinesin-1 (aa 1-401) rigor mutant, Kin401T99N:mGFP (domain or fragment)
chain: not shown
notes: The construct without the mutation was a gift from T Surrey; also called rigor kinesin; GFP-labelled rigor kinesin; source: bacteria (BL21(DE3) strain), dimeric fraction purified using gel filtration; not shown: monomeric GFP, C-terminal, kept
[1]
  stoichiometry N: 2
[2]
  stoichiometry N: ≤ 2
